Assay results published in publication PMC8930183, “Structure of the Pf12 and Pf41 heterodimeric complex of Plasmodium falciparum 6-cysteine proteins” (FEMS Microbes, 2022).
Numbering of substitutions follows the chain as printed.

Experiments:
Conditions in all cases: both partners purified
[1] = target: T1, Pf12 D2 (residues E174-S304) (Plasmodium falciparum, UniProt C6KSX0); assay: BLI; Octet RED96e; nanobodies loaded on NTA sensors; untagged Pf12 or Pf41 (6-200 nM) or their domains in solution; PBS pH 7.4, 0.1% BSA, 0.05% TWEEN-20, 25°C; global 1:1 fit
T1 construct: Pf12, Plasmodium falciparum, C-terminal 6-cys domain D2, residues E174-S304; also called Pf12 D2 domain; source: Spodoptera frugiperda 21 cells, purified by the same protocol as Pf12 D1D2; not shown: His8, N-terminal, cleaved

[2] = target: T2, Pf12 D1 (residues N28-L172) (Plasmodium falciparum, UniProt C6KSX0); assay: as above
T2 construct: Pf12, Plasmodium falciparum, N-terminal 6-cys domain D1, residues N28-L172; also called Pf12 D1 domain; source: Spodoptera frugiperda 21 cells, purified by the same protocol as Pf12 D1D2; not shown: His8, N-terminal, cleaved

[3] = target: T3, Pf41 D1D2 (residues 21-368), untagged (Plasmodium falciparum, UniProt Q8I1Y0); assay: as above
T3 construct: Pf41, Plasmodium falciparum 6-cysteine protein, residues K21-S368 (D1 with the inserted-domain-like region ID, and D2); lacks the signal peptide and ten C-terminal residues; After TEV cleavage three residues, GAS, remain at the N-terminus as cloning artefacts; N-glycosylation sites kept; treated with PNGase F before crystallisation; also called Pf41 wildtype; source: Spodoptera frugiperda 21 …

[4] = target: T4, Pf12 D1D2 (residues 28-304), untagged (Plasmodium falciparum, UniProt C6KSX0); assay: as above
T4 construct: Pf12, Plasmodium falciparum 6-cysteine protein, residues N28-S304 (domains D1 and D2); lacks the signal peptide and the GPI-anchor site; After TEV cleavage three residues, GAS, remain at the N-terminus as cloning artefacts; N-glycosylation sites kept; treated with PNGase F before crystallisation; also called Pf12 wildtype; source: Spodoptera frugiperda 21 cells, secreted into growth media, …

Pf41 D1D2 N339A = target: T5, Pf41 D1D2 N339A (Plasmodium falciparum, UniProt Q8I1Y0 21-368, N339A); assay: BLI; Octet RED96e; octa-histidine tagged Pf12 loaded on NTA sensors; untagged Pf41 wildtype or mutant 31-1000 nM; PBS pH 7.4, 0.1% BSA, 0.05% TWEEN-20, 25°C; read-out relative maximum response against wildtype
T5 construct: Pf41, Plasmodium falciparum, residues K21-S368 (D1D2); source: Spodoptera frugiperda 21 cells, purified (Ni-IMAC, TEV cleavage, SEC); not shown: His8, N-terminal, cleaved
T5 sequence: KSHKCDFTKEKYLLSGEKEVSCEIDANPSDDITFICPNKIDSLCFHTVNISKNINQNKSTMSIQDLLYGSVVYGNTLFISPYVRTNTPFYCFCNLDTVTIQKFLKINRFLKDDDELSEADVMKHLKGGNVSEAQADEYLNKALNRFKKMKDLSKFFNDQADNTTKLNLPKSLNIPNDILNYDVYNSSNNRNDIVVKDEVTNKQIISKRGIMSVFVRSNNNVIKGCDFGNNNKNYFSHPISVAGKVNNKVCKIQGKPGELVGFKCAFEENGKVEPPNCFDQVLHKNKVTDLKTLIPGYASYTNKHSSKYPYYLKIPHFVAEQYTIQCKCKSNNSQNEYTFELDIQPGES

Pf41 D1D2 F166L = target: T6, Pf41 D1D2 F166L (Plasmodium falciparum, UniProt Q8I1Y0 21-368, F166 L); assay: as above
T6 construct: Pf41, Plasmodium falciparum, residues K21-S368 (D1D2); source: Spodoptera frugiperda 21 cells, purified (Ni-IMAC, TEV cleavage, SEC); not shown: His8, N-terminal, cleaved
T6 sequence: T5 sequence with F146L, A319N

[5] = target: T7, Pf41 D1D2 (residues 21-368), untagged (Plasmodium falciparum, UniProt Q8I1Y0 21-368); assay: as above
T7 construct: Pf41, Plasmodium falciparum 6-cysteine protein, residues K21-S368 (D1 with the inserted-domain-like region ID, and D2); lacks the signal peptide and ten C-terminal residues; After TEV cleavage three residues, GAS, remain at the N-terminus as cloning artefacts; N-glycosylation sites kept; treated with PNGase F before crystallisation; also called Pf41 wildtype; source: Spodoptera frugiperda 21 …
T7 sequence (looked up): T5 sequence with A319N

Pf41 D1D2 E367A = target: T8, Pf41 D1D2 E367A (Plasmodium falciparum, UniProt Q8I1Y0 21-368, E367A); assay: as above
T8 construct: Pf41, Plasmodium falciparum, residues K21-S368 (D1D2); source: Spodoptera frugiperda 21 cells, purified (Ni-IMAC, TEV cleavage, SEC); not shown: His8, N-terminal, cleaved
T8 sequence: T5 sequence with A319N, E347A

Pf41 D1D2 E340A = target: T9, Pf41 D1D2 E340A (Plasmodium falciparum, UniProt Q8I1Y0 21-368, E340A); assay: as above
T9 construct: Pf41, Plasmodium falciparum, residues K21-S368 (D1D2); source: Spodoptera frugiperda 21 cells, purified (Ni-IMAC, TEV cleavage, SEC); not shown: His8, N-terminal, cleaved
T9 sequence: T5 sequence with A319N, E320A

Pf41 D1D2 H336A = target: T10, Pf41 D1D2 H336A (Plasmodium falciparum, UniProt Q8I1Y0 21-368, H336 to alanine); assay: as above
T10 construct: Pf41, Plasmodium falciparum, residues K21-S368 (D1D2); source: Spodoptera frugiperda 21 cells, purified (Ni-IMAC, TEV cleavage, SEC); not shown: His8, N-terminal, cleaved
T10 sequence: T5 sequence with H316A, A319N

T3 sequence (Q8I1Y0 21-368): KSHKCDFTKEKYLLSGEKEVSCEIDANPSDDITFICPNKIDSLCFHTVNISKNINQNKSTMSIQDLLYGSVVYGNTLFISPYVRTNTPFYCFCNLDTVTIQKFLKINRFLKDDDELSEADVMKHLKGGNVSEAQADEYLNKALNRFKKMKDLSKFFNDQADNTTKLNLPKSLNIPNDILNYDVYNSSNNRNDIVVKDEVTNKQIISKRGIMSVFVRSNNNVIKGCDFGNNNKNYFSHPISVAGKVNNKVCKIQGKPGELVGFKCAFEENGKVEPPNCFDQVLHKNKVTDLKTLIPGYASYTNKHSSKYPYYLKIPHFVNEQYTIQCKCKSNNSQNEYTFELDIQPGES

B1: nanobody H2 (VHH)
VHH: QVQLQESGGGSVQAGGSLRLSCTTSRRTRNTHAMGWFRQAPGKEREFVAAISWIDSSTYYADSVKGRFTMSGGNARNTVYLQMNSLEPEDTAVYYCAAGSVVAGFWEEVGYDYWGQGTQVTVSS
notes: alpaca, immunised with Pf12-Pf41 complex; Pf12-specific (D1 domain); source: E. coli WK6, periplasmic extract, purified (HisTrap, SEC)
What does the source list for B1?
binding result [1]: no binding; binding result [2]: binds; binding result [3]: no binding; binding result [4]: binds

B2: octa-histidine tagged Pf12 D1D2 (residues 28-304) (domain or fragment)
chain: NLTCDFNDVYKLEFHPNQQTSVTKLCNLTPNVLEKVTIKCGSDKLNYNLYPPTCFEEVYASRNMMHLKKIKEFVIGSSMFMRRSLTPNKINEVSFRIPPNMMPEKPIYCFCENKKTITINGSNGNPSSKKDIINRGIVEIIIPSLNEKVKGCDFTTSESTIFSKGYSINEISNKSSNNQQDIVCTVKAHANDLIGFKCPSNYSVEPHDCFVSAFNLSGKNENLENKLKLTNIIMDHYNNTFYSRLPSLISDNWKFFCVCSKDNEKKLVFTVEASISS
notes: Pf12, Plasmodium falciparum 6-cysteine protein, residues N28-S304 (domains D1 and D2); TEV-cleavable tag left on; loaded on NTA sensors; also called tagged wildtype Pf12; source: Spodoptera frugiperda 21 cells, secreted into growth media, purified as tagged protein (Ni-IMAC, SEC); not shown: His8, N-terminal, kept
Which results are given for B2?
binding result (Pf41 D1D2 N339A): binds; binding result (Pf41 D1D2 F166L): binds; binding result [5]: binds; binding result (Pf41 D1D2 E367A): binds; binding result (Pf41 D1D2 E340A): binds; binding result (Pf41 D1D2 H336A): binds
